The values below come from patent publication US20080032921A1.

The target of the first experiment is purified HLA-DR molecule DRB1*0301 (human). Kind of experiment: competition with 125I-labelled peptide for purified HLA.
In general, IC50 refers to the concentration at which inhibition is half-maximal. A lower IC50 goes with higher potency. Turning to KYPITADKRIMEMIP (modifications not checked) [… (Flu.PB2.57)], the half-maximal inhibitory concentration (IC50) was 48 nM.
Same read-out and setting: then GGEVRNDDVDQSLII (modifications not checked) [… (Flu.PB2.250)], with 347 nM.

The next experiment deals with purified HLA-DR molecule DRB1*0401 (human). The description is as above.
Molecule KYPITADKRIMEMIP (modifications not checked) [… (Flu.PB2.57)] had a half-inhibitory concentration (IC50) of 9390 nM.
GGEVRNDDVDQSLII (modifications not checked) [… (Flu.PB2.250)] showed a half-inhibitory concentration (IC50) of 2160 nM.

The target in another experiment is purified HLA-DR molecule DRB1*0404 (human). The experiment is described as above.
In turn, KYPITADKRIMEMIP (modifications not checked) [… (Flu.PB2.57)] registered an IC50 of 2290 nM.
Regarding GGEVRNDDVDQSLII (modifications not checked) [… (Flu.PB2.250)], the concentration for half-maximal inhibition (IC50) was 458 nM.

Another experiment concerns the target purified HLA-DR molecule DRB1*1302 (human). Described as above.
Consider KYPITADKRIMEMIP (modifications not checked) [… (Flu.PB2.57)], for which the IC50 was 68 nM.
On to GGEVRNDDVDQSLII (modifications not checked) [… (Flu.PB2.250)], for which the IC50 was determined as 2500 nM.

For another experiment, the target named is HLA-DR DRB1*0101 (human). In words: competition with 125I-labeled reference peptide, purified HLA.
In turn, SIWIELDEIGEDVAP (modifications not checked) [Flu.PA.423] displayed an IC50 of 13400 nM.
On to RNYFTAEVSHCRATE (modifications not checked) [Flu.PA.446], for which the IC50 turned out to be 627 nM.
On to QLLLEVEQEIRTFSF (modifications not checked) [Flu.NS2.180], for which the IC50 is 11900 nM. This IC50 is about 19-fold higher than that of the molecule before.
FNPMIVELAEKTMKE (modifications not checked) [Flu.PA.12] displayed a 50% inhibitory concentration (IC50) of 48 nM.
Molecule ALQLLFEVEQEIRTF (modifications not checked) [Flu.NS2.178] registered a concentration for half-maximal inhibition (IC50) of 3490 nM.
LKQYDSDEPELRSLS (modifications not checked) [Flu.PA.393] returned an IC50 of 17700 nM. This IC50 lies about 5.1-fold higher than the previous one.

For another experiment, the target named is HLA-DR DRB1*0301 (human). The description is as above.
SIWIELDEIGEDVAP (modifications not checked) [Flu.PA.423] gave a half-inhibitory concentration (IC50) of 59 nM. That is a double-digit nanomolar value.
Molecule RNYFTAEVSHCRATE (modifications not checked) [Flu.PA.446] returned a 50% inhibitory concentration (IC50) of 883 nM.
Regarding QLLLEVEQEIRTFSF (modifications not checked) [Flu.NS2.180], the half-inhibitory concentration (IC50) was determined as 792 nM.
FNPMIVELAEKTMKE (modifications not checked) [Flu.PA.12] had a half-maximal inhibitory concentration (IC50) of 744 nM. The IC50 values of the last two molecules are within 1.5-fold of each other.
The same measure, in the same setting: then ALQLLFEVEQEIRTF (modifications not checked) [Flu.NS2.178], with 403 nM; and LKQYDSDEPELRSLS (modifications not checked) [Flu.PA.393], with 88 nM.

The target in the next experiment is HLA-DR DRB1*0401 (human). The description is as above.
As to SIWIELDEIGEDVAP (modifications not checked) [Flu.PA.423], the IC50 came to 5400 nM.
The same measure, in the same setting: then RNYFTAEVSHCRATE (modifications not checked) [Flu.PA.446], with 45 nM; and QLLLEVEQEIRTFSF (modifications not checked) [Flu.NS2.180], with 13900 nM; and FNPMIVELAEKTMKE (modifications not checked) [Flu.PA.12], with 29 nM.
Still for that read-out and setting: then ALQLLFEVEQEIRTF (modifications not checked) [Flu.NS2.178], with 10300 nM; and LKQYDSDEPELRSLS (modifications not checked) [Flu.PA.393], with 7260 nM.

A further experiment addresses HLA-DR DRB1*0404 (human). The experiment is described as above.
In the case of RNYFTAEVSHCRATE (modifications not checked) [Flu.PA.446], the concentration for half-maximal inhibition (IC50) was found to be 7600 nM.
QLLLEVEQEIRTFSF (modifications not checked) [Flu.NS2.180] gave a half-inhibitory concentration (IC50) of 1600 nM.
The molecule FNPMIVELAEKTMKE (modifications not checked) [Flu.PA.12] came in with an IC50 of 610 nM.
Same read-out and setting: then ALQLLFEVEQEIRTF (modifications not checked) [Flu.NS2.178], with 2150 nM; and LKQYDSDEPELRSLS (modifications not checked) [Flu.PA.393], with 5800 nM.

The target of another experiment is HLA-DR DRB1*0405 (human). Described as above.
For the molecule SIWIELDEIGEDVAP (modifications not checked) [Flu.PA.423], the half-maximal inhibitory concentration (IC50) is above 10000 nM.
On the same count and under the same terms, then RNYFTAEVSHCRATE (modifications not checked) [Flu.PA.446], with 5720 nM; and QLLLEVEQEIRTFSF (modifications not checked) [Flu.NS2.180], with 5140 nM.
As to FNPMIVELAEKTMKE (modifications not checked) [Flu.PA.12], the half-maximal inhibitory concentration (IC50) is 1240 nM.
ALQLLFEVEQEIRTF (modifications not checked) [Flu.NS2.178] gave a half-maximal inhibitory concentration (IC50) of 8870 nM.
LKQYDSDEPELRSLS (modifications not checked) [Flu.PA.393]: the IC50 was above 10000 nM.

The next experiment has as its target HLA-DR DRB1*1302 (human). Described as above.
In turn, SIWIELDEIGEDVAP (modifications not checked) [Flu.PA.423] showed a half-maximal inhibitory concentration (IC50) above 10000 nM.
RNYFTAEVSHCRATE (modifications not checked) [Flu.PA.446]: the half-maximal inhibitory concentration (IC50) was above 10000 nM.
The molecule QLLLEVEQEIRTFSF (modifications not checked) [Flu.NS2.180] had a half-maximal inhibitory concentration (IC50) of 13200 nM.
Consider FNPMIVELAEKTMKE (modifications not checked) [Flu.PA.12], for which the IC50 was 1250 nM.
Regarding ALQLLFEVEQEIRTF (modifications not checked) [Flu.NS2.178], the half-inhibitory concentration (IC50) was above 10000 nM.
Still for that read-out and setting: then LKQYDSDEPELRSLS (modifications not checked) [Flu.PA.393], with above 10000 nM.

The target in a further experiment is HLA-DR DRB1*0101 (human). In words: competition with 125I-labelled reference peptide on purified HLA-DR.
In turn, IGNMISIWVSHSIHTG (modifications not checked) [Flu.NA.26 peptide …] returned an IC50 of 1050 nM. This lies in the single-digit micromolar range.
For RTFFLTQGALLNDKHS (modifications not checked) [Flu.NA.110 peptide …], the IC50 was 16 nM. This IC50 is about 66-fold lower than that of the molecule before.
For NLEYQIGYICSGVFG (modifications not checked) [Flu.NA.289 peptide …], the IC50 was found to be 1130 nM.
The same measure, in the same setting: then NGTVKDRSPHRTLMS (modifications not checked) [Flu.NA.126 peptide …], with 581 nM; and VAVLKYNGIITDTIKSW (modifications not checked) [Flu.NA.183 peptide …], with 3390 nM.

The target in the next experiment is HLA-DR DRB1*0401 (human). The description is as above.
IGNMISIWVSHSIHTG (modifications not checked) [Flu.NA.26 peptide …]: the IC50 stood at 925 nM.
Molecule RTFFLTQGALLNDKHS (modifications not checked) [Flu.NA.110 peptide …] showed an IC50 of 251 nM.
The molecule NLEYQIGYICSGVFG (modifications not checked) [Flu.NA.289 peptide …] displayed a half-maximal inhibitory concentration (IC50) of 975 nM.
Consider NGTVKDRSPHRTLMS (modifications not checked) [Flu.NA.126 peptide …], for which the IC50 worked out at 17900 nM.
Same read-out and setting: then VAVLKYNGIITDTIKSW (modifications not checked) [Flu.NA.183 peptide …], with 319 nM.

A further experiment concerns the target HLA-DR DRB1*1302 (human). The description is as above.
In turn, IGNMISIWVSHSIHTG (modifications not checked) [Flu.NA.26 peptide …] displayed a half-maximal inhibitory concentration (IC50) of 5950 nM.
The same measure, in the same setting: then RTFFLTQGALLNDKHS (modifications not checked) [Flu.NA.110 peptide …], with 3200 nM.
For the molecule NLEYQIGYICSGVFG (modifications not checked) [Flu.NA.289 peptide …], the IC50 was 41 nM.
Molecule NGTVKDRSPHRTLMS (modifications not checked) [Flu.NA.126 peptide …] yielded an IC50 of 7930 nM.
In the case of VAVLKYNGIITDTIKSW (modifications not checked) [Flu.NA.183 peptide …], the IC50 came out at 169 nM.

The target of another experiment is HLA-DR DRB1*1501 (human). The experiment is described as above.
Consider IGNMISIWVSHSIHTG (modifications not checked) [Flu.NA.26 peptide …], for which the IC50 was 81 nM. This counts as double-digit nanomolar.
In turn, RTFFLTQGALLNDKHS (modifications not checked) [Flu.NA.110 peptide …] registered a 50% inhibitory concentration (IC50) of 790 nM.
For NLEYQIGYICSGVFG (modifications not checked) [Flu.NA.289 peptide …], the IC50 worked out at 13 nM. Against the preceding molecule, the IC50 is about 61-fold lower.
The molecule NGTVKDRSPHRTLMS (modifications not checked) [Flu.NA.126 peptide …] showed an IC50 of 267 nM.
VAVLKYNGIITDTIKSW (modifications not checked) [Flu.NA.183 peptide …] gave a 50% inhibitory concentration (IC50) of 19 nM.

For the next experiment, the target named is HLA-DR DRB4*0101 (human). Described as above.
For IGNMISIWVSHSIHTG (modifications not checked) [Flu.NA.26 peptide …], the IC50 was found to be 817 nM.
RTFFLTQGALLNDKHS (modifications not checked) [Flu.NA.110 peptide …] displayed an IC50 of 2320 nM.
NLEYQIGYICSGVFG (modifications not checked) [Flu.NA.289 peptide …] displayed a 50% inhibitory concentration (IC50) of 354 nM.
NGTVKDRSPHRTLMS (modifications not checked) [Flu.NA.126 peptide …] gave a half-maximal inhibitory concentration (IC50) of 8880 nM.
Same read-out and setting: then VAVLKYNGIITDTIKSW (modifications not checked) [Flu.NA.183 peptide …], with 289 nM.
